The values below are quoted from earlier work in PMC2744109.

The target of data set [1] is LRP1 CR7-CR8 (Homo sapiens) (UniProt Q07954). Put plainly: ITC.
Data set [2] addresses LRP1 CR5-CR7 (Homo sapiens) (UniProt Q07954).
Data set [3] has as its target Factor VIII (Homo sapiens) (UniProt P00451).

“And” between values parts separate entries of the source, which are not always exact repeats. Equal entries are not always repeated.

UniProt P00451, sequence (P00451 760-1332): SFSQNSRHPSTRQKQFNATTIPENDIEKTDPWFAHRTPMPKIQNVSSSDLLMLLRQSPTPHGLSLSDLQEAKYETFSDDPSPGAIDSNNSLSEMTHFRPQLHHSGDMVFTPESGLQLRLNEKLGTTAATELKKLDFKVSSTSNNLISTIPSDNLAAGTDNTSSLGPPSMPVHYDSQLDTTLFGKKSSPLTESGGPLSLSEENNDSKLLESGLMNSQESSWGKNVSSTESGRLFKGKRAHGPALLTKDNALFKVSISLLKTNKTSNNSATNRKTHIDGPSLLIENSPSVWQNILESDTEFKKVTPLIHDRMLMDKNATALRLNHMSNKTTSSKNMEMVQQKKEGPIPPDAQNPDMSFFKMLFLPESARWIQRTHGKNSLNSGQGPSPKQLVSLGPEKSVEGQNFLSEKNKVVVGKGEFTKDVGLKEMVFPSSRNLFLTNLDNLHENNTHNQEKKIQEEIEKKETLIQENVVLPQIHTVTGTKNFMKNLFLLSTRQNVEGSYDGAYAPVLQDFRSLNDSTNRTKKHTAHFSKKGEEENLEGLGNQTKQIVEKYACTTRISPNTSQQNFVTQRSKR
LRP1, sequence (Q07954 20-4544): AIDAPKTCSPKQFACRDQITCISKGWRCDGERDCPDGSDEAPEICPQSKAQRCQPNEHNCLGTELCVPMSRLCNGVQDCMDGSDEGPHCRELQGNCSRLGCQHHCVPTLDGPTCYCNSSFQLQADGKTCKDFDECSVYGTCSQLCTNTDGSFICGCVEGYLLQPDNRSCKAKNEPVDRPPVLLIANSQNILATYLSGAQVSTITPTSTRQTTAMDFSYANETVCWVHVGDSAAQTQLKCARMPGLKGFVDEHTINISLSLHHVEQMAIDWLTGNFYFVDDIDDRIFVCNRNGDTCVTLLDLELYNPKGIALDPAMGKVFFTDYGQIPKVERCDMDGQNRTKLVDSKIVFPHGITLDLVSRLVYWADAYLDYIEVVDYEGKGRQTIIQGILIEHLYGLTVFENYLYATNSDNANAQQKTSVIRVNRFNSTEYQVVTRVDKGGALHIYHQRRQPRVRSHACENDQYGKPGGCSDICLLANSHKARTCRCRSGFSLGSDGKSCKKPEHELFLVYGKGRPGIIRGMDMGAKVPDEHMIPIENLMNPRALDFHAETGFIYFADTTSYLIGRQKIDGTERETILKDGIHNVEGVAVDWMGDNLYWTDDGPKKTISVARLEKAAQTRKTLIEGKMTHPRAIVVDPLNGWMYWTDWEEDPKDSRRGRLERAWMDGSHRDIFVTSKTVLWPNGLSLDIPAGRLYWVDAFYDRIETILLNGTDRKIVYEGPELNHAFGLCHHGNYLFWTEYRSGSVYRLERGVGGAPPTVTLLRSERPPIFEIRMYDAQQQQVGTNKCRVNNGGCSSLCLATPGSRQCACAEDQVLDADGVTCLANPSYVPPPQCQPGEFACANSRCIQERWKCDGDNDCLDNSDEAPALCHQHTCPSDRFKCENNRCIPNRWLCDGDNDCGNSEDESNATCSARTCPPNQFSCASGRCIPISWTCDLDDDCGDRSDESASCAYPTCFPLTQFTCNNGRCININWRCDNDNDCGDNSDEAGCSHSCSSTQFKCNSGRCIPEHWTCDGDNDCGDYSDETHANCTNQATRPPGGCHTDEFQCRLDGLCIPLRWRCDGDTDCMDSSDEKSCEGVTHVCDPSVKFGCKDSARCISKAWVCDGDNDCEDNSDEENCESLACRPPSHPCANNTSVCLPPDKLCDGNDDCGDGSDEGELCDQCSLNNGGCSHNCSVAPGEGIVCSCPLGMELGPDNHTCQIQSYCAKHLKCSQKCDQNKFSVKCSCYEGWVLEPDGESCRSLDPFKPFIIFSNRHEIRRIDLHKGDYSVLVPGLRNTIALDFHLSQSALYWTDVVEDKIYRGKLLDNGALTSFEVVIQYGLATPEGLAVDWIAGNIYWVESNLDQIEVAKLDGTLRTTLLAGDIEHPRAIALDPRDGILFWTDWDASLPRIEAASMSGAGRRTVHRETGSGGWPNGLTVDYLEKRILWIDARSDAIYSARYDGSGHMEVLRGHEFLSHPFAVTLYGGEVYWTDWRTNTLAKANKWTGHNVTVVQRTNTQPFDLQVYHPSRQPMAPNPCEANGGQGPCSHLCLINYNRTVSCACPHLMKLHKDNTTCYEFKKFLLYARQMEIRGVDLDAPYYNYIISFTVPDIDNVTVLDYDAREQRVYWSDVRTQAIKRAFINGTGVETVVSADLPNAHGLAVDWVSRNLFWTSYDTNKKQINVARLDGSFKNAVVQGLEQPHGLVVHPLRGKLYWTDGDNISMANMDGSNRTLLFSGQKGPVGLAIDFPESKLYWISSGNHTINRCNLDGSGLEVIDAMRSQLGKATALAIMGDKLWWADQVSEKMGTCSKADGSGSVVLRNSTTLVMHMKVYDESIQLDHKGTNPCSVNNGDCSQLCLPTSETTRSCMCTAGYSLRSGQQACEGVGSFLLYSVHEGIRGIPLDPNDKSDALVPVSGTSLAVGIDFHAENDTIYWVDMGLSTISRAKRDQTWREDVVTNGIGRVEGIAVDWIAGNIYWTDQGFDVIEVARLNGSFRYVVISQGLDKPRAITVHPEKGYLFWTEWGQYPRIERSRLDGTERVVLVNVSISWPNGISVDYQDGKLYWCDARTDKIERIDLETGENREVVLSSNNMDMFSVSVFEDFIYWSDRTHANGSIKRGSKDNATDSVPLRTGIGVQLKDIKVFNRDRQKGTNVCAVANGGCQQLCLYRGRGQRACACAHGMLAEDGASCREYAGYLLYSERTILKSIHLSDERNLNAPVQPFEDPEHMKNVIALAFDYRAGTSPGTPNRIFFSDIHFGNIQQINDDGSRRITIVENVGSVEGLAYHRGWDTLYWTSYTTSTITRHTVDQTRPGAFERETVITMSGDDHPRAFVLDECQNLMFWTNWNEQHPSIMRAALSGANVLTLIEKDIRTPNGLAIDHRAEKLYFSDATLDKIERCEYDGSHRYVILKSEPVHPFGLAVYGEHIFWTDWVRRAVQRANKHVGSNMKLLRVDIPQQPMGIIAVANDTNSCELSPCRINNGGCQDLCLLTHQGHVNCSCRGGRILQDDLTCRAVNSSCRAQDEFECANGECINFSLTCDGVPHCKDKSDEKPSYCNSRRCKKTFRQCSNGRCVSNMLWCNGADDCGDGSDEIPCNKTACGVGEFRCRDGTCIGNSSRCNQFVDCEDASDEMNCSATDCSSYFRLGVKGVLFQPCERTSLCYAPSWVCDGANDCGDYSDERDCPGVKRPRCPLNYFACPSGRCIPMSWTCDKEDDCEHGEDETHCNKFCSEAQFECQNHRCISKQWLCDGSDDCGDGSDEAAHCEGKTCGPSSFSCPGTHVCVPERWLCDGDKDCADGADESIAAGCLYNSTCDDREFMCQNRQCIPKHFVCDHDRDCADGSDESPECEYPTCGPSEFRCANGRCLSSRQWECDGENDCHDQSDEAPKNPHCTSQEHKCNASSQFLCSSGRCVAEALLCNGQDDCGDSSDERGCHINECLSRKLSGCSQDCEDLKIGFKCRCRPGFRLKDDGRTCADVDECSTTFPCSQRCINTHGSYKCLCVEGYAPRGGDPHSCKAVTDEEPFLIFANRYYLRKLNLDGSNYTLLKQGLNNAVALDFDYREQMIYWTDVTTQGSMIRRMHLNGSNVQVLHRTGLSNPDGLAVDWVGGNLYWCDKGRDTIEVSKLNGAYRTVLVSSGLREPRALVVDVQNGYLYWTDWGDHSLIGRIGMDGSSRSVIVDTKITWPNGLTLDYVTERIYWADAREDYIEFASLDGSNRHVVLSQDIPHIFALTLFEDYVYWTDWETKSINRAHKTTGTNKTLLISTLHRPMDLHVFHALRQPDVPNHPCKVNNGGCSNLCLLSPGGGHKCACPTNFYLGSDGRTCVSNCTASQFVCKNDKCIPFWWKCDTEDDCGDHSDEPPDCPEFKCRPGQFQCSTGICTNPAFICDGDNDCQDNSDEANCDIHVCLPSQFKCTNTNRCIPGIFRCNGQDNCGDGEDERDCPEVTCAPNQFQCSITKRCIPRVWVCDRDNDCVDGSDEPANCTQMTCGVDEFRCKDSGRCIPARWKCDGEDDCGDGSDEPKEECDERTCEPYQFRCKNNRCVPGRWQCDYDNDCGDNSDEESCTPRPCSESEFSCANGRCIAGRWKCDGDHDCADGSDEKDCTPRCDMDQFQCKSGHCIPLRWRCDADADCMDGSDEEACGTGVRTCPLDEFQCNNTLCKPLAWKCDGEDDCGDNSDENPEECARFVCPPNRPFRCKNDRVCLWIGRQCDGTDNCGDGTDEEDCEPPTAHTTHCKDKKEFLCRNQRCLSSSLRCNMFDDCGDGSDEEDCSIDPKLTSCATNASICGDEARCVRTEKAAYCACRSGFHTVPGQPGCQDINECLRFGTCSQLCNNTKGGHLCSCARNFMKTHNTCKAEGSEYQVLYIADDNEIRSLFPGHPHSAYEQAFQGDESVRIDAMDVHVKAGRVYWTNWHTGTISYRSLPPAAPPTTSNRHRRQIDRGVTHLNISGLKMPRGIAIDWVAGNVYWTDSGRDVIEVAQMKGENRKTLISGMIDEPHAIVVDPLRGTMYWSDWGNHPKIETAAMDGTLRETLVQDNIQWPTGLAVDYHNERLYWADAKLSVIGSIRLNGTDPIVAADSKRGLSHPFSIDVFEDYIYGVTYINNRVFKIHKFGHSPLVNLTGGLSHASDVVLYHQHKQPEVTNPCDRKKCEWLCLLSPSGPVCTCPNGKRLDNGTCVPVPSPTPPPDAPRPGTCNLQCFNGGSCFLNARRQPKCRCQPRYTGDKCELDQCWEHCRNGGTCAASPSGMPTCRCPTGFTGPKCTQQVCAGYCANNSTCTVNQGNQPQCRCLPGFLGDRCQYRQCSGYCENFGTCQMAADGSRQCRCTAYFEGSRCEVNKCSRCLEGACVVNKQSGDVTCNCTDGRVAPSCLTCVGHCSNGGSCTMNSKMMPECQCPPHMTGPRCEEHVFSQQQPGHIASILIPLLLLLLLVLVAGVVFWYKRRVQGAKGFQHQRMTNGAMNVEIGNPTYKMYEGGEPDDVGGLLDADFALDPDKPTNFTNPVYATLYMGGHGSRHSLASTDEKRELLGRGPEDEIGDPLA

For the substance RAP (from UniProt P30533), the figures for the Kd in data set [1] and in data set [2] were 1000 nM and 1.6 nM, respectively.

Take LRP1 (from UniProt Q07954): in data set [3], the equilibrium dissociation constant (Kd) was 116 nM and 60 nM. In the case of RAP D3 (from UniProt P30533), the Kd in data set [1] was 1000 nM.

In general, Kd refers to the equilibrium constant for the complex coming apart.
